Publication PMC9456352

What was measured:
[1] = target: ETE/P186G mutant (Staphylococcus aureus); assay: not stated; shown in Figure S5 (not shown); the methods tell SEC of ETE/P186G in 20 mM MES pH 7.0, 150 mM NaCl and BN-PAGE of peak fractions
[2] = target: Staphylococcus aureus exfoliative toxin E (Staphylococcus aureus); assay: SAXS; 5 mg/mL ETE in 20 mM MES pH 7.0, 150 mM NaCl, 25 °C; pair distance distribution by indirect Fourier transform
[3] = target: Staphylococcus aureus exfoliative toxin E (Staphylococcus aureus); assay: native gel or EMSA; BN-PAGE 15%, 30 ug protein, running buffer 25 mM Tris pH 8.3, 192 mM glycine; BSA monomer and bovine beta-trypsin as markers; Coomassie stain
[4] = target: Staphylococcus aureus exfoliative toxin E (Staphylococcus aureus); assay: SEC; Superdex G75 10/300 GL, 0.7 mL/min; several buffers, NaCl concentrations and pH values (among them 20 mM MES pH 7.0, 150 mM NaCl); BSA (~66 kDa) and bovine beta-trypsin (~24 kDa) as size controls; absorbance at 230 nm

Substance: ETE/P186G mutant (enzyme)
- stoichiometry N [1]: 2

Substance: Staphylococcus aureus exfoliative toxin E (enzyme)
- stoichiometry N [2]: 2
- stoichiometry N [3]: 2
- stoichiometry N [4]: 2
